Results taken from PMC5409509.

How the values were obtained:
[1] = target: T1, Mlh1-Mlh3 (Saccharomyces cerevisiae) (UniProt P38920+Q12083); experiment: filter binding; conditions: 2 mM Mg2+; Filter binding: 20 mM Tris-HCl pH 7.5, 0.01 mM EDTA, 2 mM MgCl2, 40 ug/mL BSA, 0.1 mM DTT, 15 uM nucleotide DNA, 10 min at 30 C (20 or 150 mM KCl in Fig 4B …)
T1 sequence 1: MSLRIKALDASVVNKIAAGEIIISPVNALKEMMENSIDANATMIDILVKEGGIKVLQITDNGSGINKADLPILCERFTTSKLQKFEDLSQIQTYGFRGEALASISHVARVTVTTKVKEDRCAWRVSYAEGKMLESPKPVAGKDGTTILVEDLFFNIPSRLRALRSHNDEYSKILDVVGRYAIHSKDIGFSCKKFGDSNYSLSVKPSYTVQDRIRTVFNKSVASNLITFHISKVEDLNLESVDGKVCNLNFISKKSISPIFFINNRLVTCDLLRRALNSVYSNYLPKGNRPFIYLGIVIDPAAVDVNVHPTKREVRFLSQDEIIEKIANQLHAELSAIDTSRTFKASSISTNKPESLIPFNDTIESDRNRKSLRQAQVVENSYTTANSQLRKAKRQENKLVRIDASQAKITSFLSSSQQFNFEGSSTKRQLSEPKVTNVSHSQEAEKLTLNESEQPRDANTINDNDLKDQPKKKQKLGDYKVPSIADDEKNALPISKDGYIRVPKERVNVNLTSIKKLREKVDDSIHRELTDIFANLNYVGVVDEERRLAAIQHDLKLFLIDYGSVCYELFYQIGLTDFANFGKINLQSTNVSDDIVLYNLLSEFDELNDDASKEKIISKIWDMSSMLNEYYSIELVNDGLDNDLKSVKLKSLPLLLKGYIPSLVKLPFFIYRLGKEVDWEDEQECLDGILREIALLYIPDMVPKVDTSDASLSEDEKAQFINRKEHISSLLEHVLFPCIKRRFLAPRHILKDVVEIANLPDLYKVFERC
T1 sequence 2: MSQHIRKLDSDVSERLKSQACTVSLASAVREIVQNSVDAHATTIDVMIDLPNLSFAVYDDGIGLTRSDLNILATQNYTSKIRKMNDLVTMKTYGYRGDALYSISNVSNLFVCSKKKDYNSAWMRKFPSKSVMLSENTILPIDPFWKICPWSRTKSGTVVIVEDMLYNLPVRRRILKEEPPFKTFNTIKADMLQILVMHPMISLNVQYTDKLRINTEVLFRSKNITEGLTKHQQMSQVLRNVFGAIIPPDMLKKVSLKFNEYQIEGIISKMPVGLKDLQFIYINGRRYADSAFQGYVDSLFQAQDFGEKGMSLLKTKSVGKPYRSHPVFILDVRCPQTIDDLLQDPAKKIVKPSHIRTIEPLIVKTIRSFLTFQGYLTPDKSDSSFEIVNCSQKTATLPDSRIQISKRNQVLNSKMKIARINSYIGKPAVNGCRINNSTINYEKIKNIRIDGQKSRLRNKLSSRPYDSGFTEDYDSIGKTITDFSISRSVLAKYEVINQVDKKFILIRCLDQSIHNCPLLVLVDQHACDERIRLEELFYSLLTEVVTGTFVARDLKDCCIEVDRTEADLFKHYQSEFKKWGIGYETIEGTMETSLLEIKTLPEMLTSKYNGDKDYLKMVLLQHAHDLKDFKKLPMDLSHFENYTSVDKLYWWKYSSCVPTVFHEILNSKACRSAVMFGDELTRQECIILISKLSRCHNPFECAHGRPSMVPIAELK

[2] = target: Yeast wild-type Mlh1-Mlh3 (yeast (S. cerevisiae)) (UniProt P38920)

amount of nicked product made by Mlh1-Mlh3 on the 7.2 kb +8 loop circular substrate, without and with Msh2-Msh3 (10% without) [2] [%] | amount of nicked product made by Mlh1-Mlh3 on the 7.2 kb homoduplex circular substrate, without and with Msh2-Msh3 (15% without) [2] [%] | Substance | Kd [1] [nM]
 |  | 2.7 kb linear pUC18 (HindIII) | 100
 |  | 7 kb linear pEAE399 (HindIII) | 65
 |  | 12 kb linear pEAE99 (HindIII) | 40
21 | 36 | Yeast Msh2-Msh3 (from UniProt P25847 1-964; P25336 1-1018) (complex) | 
